The data set can be described thus: yeast display, Sf9 membrane polyspecificity reagent, FACS + sequencing; frameworks hold sequencing errors. A digest of the protocol:
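A nanobody's polyreactivity label depends on the gate it was sorted from. Yeast display cells were stained with 10% biotinylated, detergent-solubilized Sf9 membrane reagent for 1 hour at 4 °C, enriched on streptavidin microbeads and sorted by FACS. The low and high (top ~1%) gates were set on anti-HA fluorescence for expression and streptavidin fluorescence for reagent binding.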
With “QVQLVESGGGLVQAGGSLRLSCAASGSIFGENAMGWYRQAPGKERELVAAITSGGSTDYADSVKGRFTISRDNAKNTVYLQMNSLKPEDTAVYYCAASGRVGPGYWYDSWGQGTQVTVSS”, the “polyreactivity (PSR sort gate)” value is “low polyreactivity”.
Consider “QVQLVESGGGLVQAGGSLRLSCAASGSIFGEYVRGWYREAPGKERELVADISWRDGDTYYADSEKGRFTISRDNAKNTVYLQMNSLKPEDTAVYYCAADVIVPESYGYWPLSYYYWGQGTQVTVSS”, for which the “polyreactivity (PSR sort gate)” value is on record as “low polyreactivity”.
In the case of “QVQLVESGGGLVQAGGSLRLSCAASGSIFGFNALGWYRQAPGKERELVASITWSGSSTYYADSVKGRFTISRDNAKNTVYLQMNSLKPEDTAVYYCAKEFVHTHFYLWHVFKYGYWGQGTQVTVSS”, the “polyreactivity (PSR sort gate)” value is on record as “low polyreactivity”.
The entry for “QVQLVESGGGLVQAGGSLRLSCAASGSIFGFNTMGWYRQAPGKEMELVATINWSGGSTYYADSVKGRFTISRDNAKNTVYLQMNSLKPEDTAVYYCNAGPFSGRLFTTYASWGRYDYWGQGTQVTVSS” is “low polyreactivity”; for “QVQLVESGGGLVQAGGSLRLSCAASGSIFGFYMGWYRQAPGKERELVAAISGSGGNTYYADSVKGRFTISRDNAKNTVYLQMNSLKPEDTAVYYCAVRYPGSRYLISKNGYWGQGTQVTVSS” it is “high polyreactivity”; for “QVQLVESGGGLVQAGGSLRLSCAASGSIFGGNAMGWYRQAPGKEREFVARITKRGGSTDYADSVKGRFTISRDNAKNTVYLQMNSLKPEDTAVYYCATGWTSKVHYRYGYWGQGTQVTVSS” it is “high polyreactivity”.
The entry for “QVQLVESGGGLVQAGGSLRLSCAASGSIFGGNAMGWYRQAPGKERELVAAITYSGGSTYYADSVKGRFTISRDNAKNTVYLQMNSLKPEDTAVYYCAASASVRGGGADQYVIAFDYWGQGTQVTVSS” is “low polyreactivity”; for “QVQLVESGGGLVQAGGSLRLSCAASGSIFGGNAMGWYRQAPGKERELVATITVRGGSTYYADSVKGRFTISRDNAKHTVYLQMNSLKPEDTAVYYCAARGGYLLPKYDYWGQGTQVTVSS” it is “low polyreactivity”.
The entry for “QVQLVESGGGLVQAGGSLRLSCAASGSIFGGNDMGWYRQAPGKERELVAAITSSGGSTYYADSVKGRFTISRDNAKNTVYLQMNSLKPEDTAVYYCYADYYGPYRDYGYWGQGTQVTVSS” is “low polyreactivity”.
Consider “QVQLVESGGGLVQAGGSLRLSCAASGSIFGGYAMGWYRQAPGKEGELVAAISWSSSSTYYADSVKGRFTMSRDNAKNTVYLQMNSLKPEDTAVYYCATGIYPQTSDYDYWGQGTQVTVSS”, for which the “polyreactivity (PSR sort gate)” value is given as “low polyreactivity”.
Consider “QVQLVESGGGLVQAGGSLRLSCAASGSIFGGYAMGWYRQAPGKERELVAAITWGGGSTYYADSVKGRFTISRDNAKNTVYLQMNSLKPEDTAVYYCAADRSWYDWEDDYWGQGTQVTVSS”, for which the “polyreactivity (PSR sort gate)” value is on record as “low polyreactivity”.
The entry for “QVQLVESGGGLVQAGGSLRLSCAASGSIFGGYAMGWYRQAPGKERELVARIRGSTGSTYYADSVKGRFTISRDNAKNTVYFQMNSLKPEDTAVYYCNARYKYYRGSGMDSWGQGTQVTVSS” is “high polyreactivity”; for “QVQLVESGGGLVQAGGSLRLSCAASGSIFGGYAMGWYRQAPGKERELVATINLGGGSTYADSVKGRFTISRDNAKNTVYLQMNSLKPEDTAVYYCAADVANSIYDYWGQGTQVTVSS” it is “low polyreactivity”.
For “QVQLVESGGGLVQAGGSLRLSCAASGSIFGGYAMGWYRQAPGKERELVATSYADSVKGRFTISRDNAKNTVYLQMNSLKPEDTAVYYCAADPPLEGGHGYNYWGQGTQVTVSS”, the “polyreactivity (PSR sort gate)” value is “low polyreactivity”.
With “QVQLVESGGGLVQAGGSLRLSCAASGSIFGGYGLGWYRQAPGKERELVAASTSGSSTYYADSVKGRFTISRDNAKNTVYFPMNSLKPEDTAVSYFAARPFPHSAYEGDYWGRGTQVTVSS”, the “polyreactivity (PSR sort gate)” value is recorded as “low polyreactivity”.
Under “QVQLVESGGGLVQAGGSLRLSCAASGSIFGGYTKGWYRQAPWKERELVAAISRRGGNTYYADSVKGRFTISRDNAQITVYLQMNSLKPEDTAVYYCAVLWPSARIPVKLDYWGQGTQVTVSS” stands “high polyreactivity”; under “QVQLVESGGGLVQAGGSLRLSCAASGSIFGHNAMGWYRQAPGKERELVAAITSTGGSTYYADSVKGRFTISRDNAKNTVYLQMNSLKPEDTAVYYCAKGWYAGYPYDYWGQGTQVTVSS”, “low polyreactivity”.
On to “QVQLVESGGGLVQAGGSLRLSCAASGSIFGINAMGWYRQAPGKERELVAGISSRGGSTYYADSVKGRFTISRDNAKNTVYLQMNSLKPEDTAVYYCAKRYGRRYGRLHDYWGQGTQVTVSS”, for which the “polyreactivity (PSR sort gate)” value is reported as “high polyreactivity”.
The entry for “QVQLVESGGGLVQAGGSLRLSCAASGSIFGINVMGWYRHAPGKDREFVAAITSGTSTYYADSVKGRFTISRDNAKNSVYLQMNSLKPEDTAVYYCAALWSSRFVVHPQWYDYWGQGTQVTVSS” is “low polyreactivity”.
Under “QVQLVESGGGLVQAGGSLRLSCAASGSIFGINVMGWYRQAPGKERELVAAITSGTSTYYADSVKGLFTISRDNANNTVYLQMNSLKPEDTAVYYCAALWSSRFVVHPQWYDYWGQGTQVTVSS” stands “low polyreactivity”; under “QVQLVESGGGLVQAGGSLRLSCAASGSIFGIYAMGWYRQAPGKERELVAAISRGGSTYYADSVKGRFTISRDNAKNTVYLQMNSLKPEDTAVYYCNAKLIVTPGRGDYWGQGTQVTVSS”, “high polyreactivity”.
As for “QVQLVESGGGLVQAGGSLRLSCAASGSIFGIYTMGWYRQAPGKERELVAAINSGGSTNYADSVKGRFTISRDNAKNTVYLQMNSLKPEDTAVYYCNAYIHPPGPRVYSREYDYWGHGTQVTVSS”, the “polyreactivity (PSR sort gate)” value is listed as “low polyreactivity”.
The entry for “QVQLVESGGGLVQAGGSLRLSCAASGSIFGIYVMGWYRQAPGKERELVAAISDGGSTYYADSVKGRFTISRDNAKNTVYLQMNSLKPEDTAVYYCAAEVHGWYSYYYWGQGTQVTVSS” is “high polyreactivity”.
Under “QVQLVESGGGLVQAGGSLRLSCAASGSIFGKNVMGWYRQAPGKDRELVAAITSGASTYYADSVKGRFTISRDNAKNTDYLQMNSLKPDDTAVYYCAARRWRKYYSGYNYWGHGTQVTVSS” stands “high polyreactivity”.
Under “QVQLVESGGGLVQAGGSLRLSCAASGSIFGKYAMGWYRQAPGKERELVAAITWSGGSTRYADSVKGRFTISRDNAKNTVYLQMNSLKPEDTAVYYCAAPSTESKYYYWGQGTQVTVSS” stands “high polyreactivity”; under “QVQLVESGGGLVQAGGSLRLSCAASGSIFGLNAMGWSRPAPGKERELVAAISGGSTNYADSVKGRFTISRDNAKNTVYLQMNSLKPEDTAVYYCAARARRRYYYWGQGTQVTVSS”, “high polyreactivity”.
As to “QVQLVESGGGLVQAGGSLRLSCAASGSIFGLNGMGWYIQAPGKERELVASISASGGSTYYADSVKGRFTISRDNAKNTVYLQMNSLKPEDTAVYYCAARVVYGAGLSSSGPKQYTRRFYYWGQGTQVTVSS”, the “polyreactivity (PSR sort gate)” value is recorded as “high polyreactivity”.
The entry for “QVQLVESGGGLVQAGGSLRLSCAASGSIFGLYAMGCYRQAPGKERELVAAITWSSGNTYYADSVKGRFTISRDNAKNTVYLQMNSLKPEDTAVYYCAAEQIYFVYWEDDYWGQGTQVTVSS” is “high polyreactivity”; for “QVQLVESGGGLVQAGGSLRLSCAASGSIFGLYAMGWSRQAPGKERELVASITGGGGTYYADSVKGRFTISRDNAKNTVYLQMNSLKPEDTAVYYCAAALYFGGDSYYYWGQGTQVTVSS” it is “low polyreactivity”; for “QVQLVESGGGLVQAGGSLRLSCAASGSIFGLYAMGWYRQAPGKERELVAAINQSGGSTSYADSVKGRFTISRDTAKNTVYLQMNSLKPEDTAVYYCAVAIVTSGPFPRDYWGQGTQVTVSS” it is “low polyreactivity”.
The entry for “QVQLVESGGGLVQAGGSLRLSCAASGSIFGLYAMGWYRQAPGKERELVAAINWNGGDTYYADSVKGRFTISRDYAKNTVYLQMNSLKPEDTAVYYCAAEQYRYGIRRRHYDYWGQGTEVTVSS” is “low polyreactivity”; for “QVQLVESGGGLVQAGGSLRLSCAASGSIFGLYAMGWYRQAPGKERELVAAITASDGSTYYADSVKGRFTISRDNAKNTVYLQMNSLKPEDTADYYCNADAYSGYFLFDYWGQGTQVTVSS” it is “low polyreactivity”; for “QVQLVESGGGLVQAGGSLRLSCAASGSIFGLYVMGWDRQAPGKERELVATITSGGSTYYADSVKGRFTISRDNAKNTVYLQMNSLKPEDTAVYYCAADPQDAAYLKYLFYDYDYWGQGTQVTVSS” it is “low polyreactivity”.
Under “QVQLVESGGGLVQAGGSLRLSCAASGSIFGLYVMGWYRQAPGKERELVAAITGRGGSTYYADSVKGRFTISRDNAKNTVYLQMNSLKPEDTAVYYCAALRYTFAGRFDYWGQGTQVTVSS” stands “high polyreactivity”; under “QVQLVESGGGLVQAGGSLRLSCAASGSIFGNYAMGWYRQAPGKEREFVAAITWIGGSSYYADSVKGRFTISRDNAKNTVYLQMHSLKPEDTAVYYCARTSYARYRNGWTYDHWGQGTQVTVSS”, “low polyreactivity”.
Take “QVQLVESGGGLVQAGGSLRLSCAASGSIFGNYAMGWYRQAPGKEREFVARISRGARTYYADSVKGRFTISRDNAKNTVYLQMNSLKPEDTAVYYCNARDYSVSYSVRFDYWGQGTQVTVSS”: the “polyreactivity (PSR sort gate)” value is “high polyreactivity”.
The entry for “QVQLVESGGGLVQAGGSLRLSCAASGSIFGPNAMRWYRQAPGKERELVAAINGGTGTFYADSLKGRFTISRDNAKNTVYLQMNSLKPEDTAVYYCAADYGTHYFVRYYYWGQGTQVTVSS” is “high polyreactivity”; for “QVQLVESGGGLVQAGGSLRLSCAASGSIFGPYAMGWYRQAPGKERELVATISSGGNTNYADSVKGRFTISRDNAKNTVYLQMNSLKPEDTAVYYCAADYTWSVYWWVDYWGQGTQVTVSS” it is “low polyreactivity”; for “QVQLVESGGGLVQAGGSLRLSCAASGSIFGPYAMGWYRQAPGKERELVATITTNGGSTYYADSVKGRFTISRDNAKNTVYLQMNSLKPEDTAVYYCATQHTDYVGAATTYNYWGQGTQVTVSS” it is “low polyreactivity”.
For “QVQLVESGGGLVQAGGSLRLSCAASGSIFGRNAKGSYRQAPGKERELVAAITVSGGRTYYADSVKGRFTISRDNAKNTVYLQMNSLKPEDTAVYYCNKYPVYRAVYGGGYEYWGQGTQVTVSS”, the “polyreactivity (PSR sort gate)” value is reported as “high polyreactivity”.

The record behind these values is the nanobody polyreactivity screen of Harvey et al. (2022).
